Laboratory results published in article PMC4333827.

Key:
[1] = target: C-terminal helical domain-deleted (ΔH-domain) form of CoMsrA (residues 1-144) (Clostridium oremlandii) (UniProt A8MI53); assay: SEC; gel filtration on Superdex S75 16/60 at the final purification step; 10 mM Tris-HCl pH 8.0, 100 mM NaCl
[2] = target: C-terminal helical domain-deleted (ΔH-domain) form of CoMsrA (residues 1-144) (Clostridium oremlandii) (UniProt A8MI53); assay: as above; remark: listed apart in the source
[3] = target: C-terminal helical domain-deleted (ΔH-domain) form of CoMsrA (residues 1-144) (Clostridium oremlandii) (UniProt A8MI53); assay: native gel or EMSA; native-PAGE; 0.2 mg/ml protein in 10 mM Tris-HCl pH 8.0, 100 mM NaCl; without and with 10 mM DTT
[4] = target: C-terminal helical domain-deleted (ΔH-domain) form of CoMsrA (residues 1-144) (Clostridium oremlandii) (UniProt A8MI53); assay: SEC-MALS; SEC-MALLS; WTC-015S5 column, 20 mM Tris-HCl pH 8.0, 100 mM NaCl, 298 K, 0.5 ml/min; 2.5 mg/ml full-length, 1.5 mg/ml ΔH-domain

- stoichiometry N [1]: 2
- stoichiometry N [2]: 4
- stoichiometry N [3]: 2
- stoichiometry N [4]: 2
Substance: C-terminal helical domain-deleted (ΔH-domain) form of CoMsrA (residues 1-144) (from UniProt A8MI53 1-144) (domain or fragment)
